How the values were obtained:
[1] = target: T1, Recombinant 6xHis-tagged human GRP78 protein, biotinylated, saturated with 10 μM celastrol (human, UniProt P11021 19-654, biotin (EZ-Link Sulfo-NHS-Biotin); celastrol covalently bound to Cys41 (mapped on recombinant mouse GRP78)); assay: SPR; as a1, but the GRP78 chip was saturated with 10 μM celastrol before the peptide; peptide 1.56 to 100 μM; steady-state analysis, 1:1 model; n = 4; conditions: both partners purified
T1 construct: 78 kDa glucose-regulated protein (GRP78), human, recombinant from Abcam; Same protein as m2, after saturation with celastrol; The covalent site Cys41 was mapped by LC-MS/MS on mouse GRP78 made in E. coli, not on the human protein on the chip; also called celastrol–GRP78 conjugate; GRP78-coated Sensor Chip saturated by celastrol; source: bought: Abcam; saturated on the chip with 10 μM celastrol

[2] = target: T2, Recombinant 6xHis-tagged human GRP78 protein, biotinylated (human, UniProt P11021 19-654, biotin (EZ-Link Sulfo-NHS-Biotin)); assay: SPR; biotinylated GRP78 captured on streptavidin Sensor Chip SA; peptide 2.5 nM to 320 μM flowed at 30 μl/min, 25°C; 10 mM HEPES, 150 mM NaCl, 3 mM EDTA, 0.005% Tween-20, pH 7.4; steady-state analysis, 1:1 model; Biacore X100; average of four runs; conditions: both partners purified
T2 construct: 78 kDa glucose-regulated protein (GRP78), human, recombinant from Abcam; Captured on the streptavidin chip through the biotin; No Abcam catalogue number is printed; also called 78 kDa glucose-regulated protein; biotinylated GRP78; source: bought: Abcam
T2 sequence (P11021 19-654): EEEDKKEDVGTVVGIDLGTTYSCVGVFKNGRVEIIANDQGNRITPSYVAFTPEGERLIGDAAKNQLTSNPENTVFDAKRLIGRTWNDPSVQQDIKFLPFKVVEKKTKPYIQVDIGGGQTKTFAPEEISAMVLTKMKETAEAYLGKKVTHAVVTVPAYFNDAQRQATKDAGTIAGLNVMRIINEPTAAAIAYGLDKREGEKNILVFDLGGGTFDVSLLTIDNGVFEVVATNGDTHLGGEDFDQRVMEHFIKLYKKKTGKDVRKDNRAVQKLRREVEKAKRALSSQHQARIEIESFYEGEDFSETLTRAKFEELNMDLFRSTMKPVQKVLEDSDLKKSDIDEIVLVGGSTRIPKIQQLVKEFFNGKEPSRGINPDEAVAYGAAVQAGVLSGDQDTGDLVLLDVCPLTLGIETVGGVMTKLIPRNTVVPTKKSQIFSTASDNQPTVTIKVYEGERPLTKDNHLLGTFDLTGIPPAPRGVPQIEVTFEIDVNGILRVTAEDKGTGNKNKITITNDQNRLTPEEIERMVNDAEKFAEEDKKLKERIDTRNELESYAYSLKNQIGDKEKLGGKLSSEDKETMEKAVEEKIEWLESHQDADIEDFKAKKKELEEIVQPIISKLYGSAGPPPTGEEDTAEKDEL

T1 sequence (P11021 19-654): as above

Kd [1]: 2230 nM | Kd [2]: 17.7 nM
B1: synthetic GRP78-targeting peptide WDLAWMFRLPVG (peptide)
peptide: WDLAWMFRLPVG
notes: synthetic GRP78-targeting peptide, as described in Arap et al., 2004; That it is not a natural stretch is surmised; also called synthetic peptide; source: synthetic peptide (GL Biochem Ltd, Shanghai)

— PMC8828050, “Covalent inhibition of endoplasmic reticulum chaperone GRP78 disconnects the transduction of ER stress signals to inflammation and lipid accumulation in diet-induced obese mice” (eLife, 2022)
